Measured values as given in article PMC12307460.
Where “and” joins values, the source holds several entries; their conditions need not be identical. Identical values can stand only once.

Columns and labels:
[1] = biological target: spike (S) protein of bat merbecovirus BtCoV/Ii/GD/2014-422 (BtCoV/Ii/GD/2014-422 (bat MERSr-CoV))
[2] = biological target: MERS-CoV spike (S) protein of strain MERS-CoV/KOR/KNIH/002_05_2015 (clade B) (MERS-CoV strain MERS-CoV/KOR/KNIH/002_05_2015 (clade B))
[3] = biological target: spike (S) protein of pangolin merbecovirus MjHKU4r-CoV (MjHKU4r-CoV (pangolin HKU4r-CoV))
[4] = biological target: MERS-CoV spike (S) protein of strain NRCE-HKU270 (clade C) (MERS-CoV strain NRCE-HKU270 (clade C))
[5] = biological target: MERS-CoV spike (S) protein of strain HCoV-EMC/2012 (clade A) (MERS-CoV strain HCoV-EMC/2012 (clade A)) (UniProt K9N5Q8)
Sequence of UniProt K9N5Q8 (K9N5Q8 18-1353): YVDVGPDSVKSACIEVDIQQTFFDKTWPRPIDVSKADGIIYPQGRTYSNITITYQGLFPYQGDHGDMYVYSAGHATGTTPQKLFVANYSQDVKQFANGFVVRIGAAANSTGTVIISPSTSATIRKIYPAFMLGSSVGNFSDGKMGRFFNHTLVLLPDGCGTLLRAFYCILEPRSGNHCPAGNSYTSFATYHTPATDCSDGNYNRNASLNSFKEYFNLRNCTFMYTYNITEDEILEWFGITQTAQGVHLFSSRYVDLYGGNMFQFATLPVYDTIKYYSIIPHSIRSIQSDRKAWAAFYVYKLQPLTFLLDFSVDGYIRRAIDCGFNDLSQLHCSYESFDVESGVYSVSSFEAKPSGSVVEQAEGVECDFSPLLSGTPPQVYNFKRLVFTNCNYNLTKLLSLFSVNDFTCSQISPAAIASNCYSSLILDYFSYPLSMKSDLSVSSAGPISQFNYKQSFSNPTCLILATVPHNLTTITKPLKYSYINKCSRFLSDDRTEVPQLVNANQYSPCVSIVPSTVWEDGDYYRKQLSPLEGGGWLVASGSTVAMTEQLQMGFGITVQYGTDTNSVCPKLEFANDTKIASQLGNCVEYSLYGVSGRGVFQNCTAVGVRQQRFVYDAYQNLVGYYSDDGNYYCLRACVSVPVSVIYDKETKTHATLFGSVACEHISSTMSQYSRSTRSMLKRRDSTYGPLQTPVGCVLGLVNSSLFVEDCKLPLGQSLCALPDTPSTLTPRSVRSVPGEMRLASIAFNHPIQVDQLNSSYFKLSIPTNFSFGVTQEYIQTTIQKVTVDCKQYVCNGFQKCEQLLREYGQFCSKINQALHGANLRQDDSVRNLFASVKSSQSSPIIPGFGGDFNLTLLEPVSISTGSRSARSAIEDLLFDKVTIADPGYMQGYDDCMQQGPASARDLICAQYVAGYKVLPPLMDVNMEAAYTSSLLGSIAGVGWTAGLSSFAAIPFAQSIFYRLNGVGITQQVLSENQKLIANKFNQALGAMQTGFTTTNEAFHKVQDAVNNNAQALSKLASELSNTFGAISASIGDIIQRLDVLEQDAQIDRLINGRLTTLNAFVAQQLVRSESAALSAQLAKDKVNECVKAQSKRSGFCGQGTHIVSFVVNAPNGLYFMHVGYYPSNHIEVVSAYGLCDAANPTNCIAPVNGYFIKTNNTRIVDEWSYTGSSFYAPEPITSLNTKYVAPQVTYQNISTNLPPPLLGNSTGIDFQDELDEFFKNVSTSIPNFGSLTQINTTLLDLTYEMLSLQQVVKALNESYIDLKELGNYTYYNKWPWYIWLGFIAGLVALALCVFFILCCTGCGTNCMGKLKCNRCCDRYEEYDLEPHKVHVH

| Substance | IC50 of neutralisation of S pseudovirus, average [1] [µg/mL] | IC50 of neutralisation of S pseudovirus, one of three assays [1] [µg/mL] | IC50 of neutralisation of S pseudovirus, average [2] [µg/mL] | IC50 of neutralisation of S pseudovirus, average [3] [µg/mL] | IC50 of neutralisation of S pseudovirus, one of three assays [3] [µg/mL] | IC50 of neutralisation of S pseudovirus, average [4] [µg/mL] | IC50 of neutralisation of S pseudovirus, average [5] [µg/mL] | IC50 of neutralisation of S pseudovirus, one of three assays [4] | IC50 of neutralisation of S pseudovirus, one of three assays [5] | IC50 of neutralisation of S pseudovirus, one of three assays [2] |
| --- | --- | --- | --- | --- | --- | --- | --- | --- | --- | --- |
| m336 (antibody) | > 5 | > 5 | 0.85 | > 5 | > 5 | 0.36 | 0.14 | – | – | – |
| CDC2-C2 (antibody) | > 5 | > 5 | 0.17 | > 5 | > 5 | 0.12 | 0.041 | – | – | – |
| 7D10 (antibody) | 23 | – | 7.5 | > 50 | > 50 | > 50 | 50 | > 50 µg/mL | 50 µg/mL | – |
| JC57-14 (antibody) | > 5 | > 5 | 0.064 | > 5 | > 5 | 0.055 | 0.037 | 0.066 µg/mL and 0.059 µg/mL and 0.039 µg/mL | 0.039 µg/mL and 0.023 µg/mL and 0.047 µg/mL | 0.09 µg/mL and 0.043 µg/mL and 0.06 µg/mL |
| MCA1 (antibody) | > 5 | > 5 | 0.096 | > 5 | > 5 | 0.067 | 0.059 | 0.084 µg/mL and 0.047 µg/mL and 0.071 µg/mL | – | 0.082 µg/mL and 0.06 µg/mL and 0.15 µg/mL |
| G4 (antibody) | 11 | – | 7.7 | > 25 | > 25 | 9.3 | 8.1 | 5.2 µg/mL and 8.7 µg/mL and 14 µg/mL | 5.9 µg/mL and 6.4 µg/mL and 12 µg/mL | – |
| D12 (antibody) | > 5 | > 5 | 0.19 | > 5 | > 5 | 0.085 | 0.068 | 0.095 µg/mL and 0.098 µg/mL and 0.061 µg/mL | 0.087 µg/mL and 0.077 µg/mL and 0.041 µg/mL | 0.25 µg/mL and 0.18 µg/mL and 0.14 µg/mL |
